{"source": "patent US20150361183A1", "about": "(IMPERIAL INNOVATIONS, published 2015)", "proteins": {"B1": {"name": "CFHR5 dimer mutant (Tyr34Ser, Ser36Tyr, Tyr39Glu) (other)", "chain": "EGTLCDFPKIHHGFLYDEEDYNPFSQVPTGEVFSYYCEENFVSPSKSFWTRITCTEEGWSPTPKCLRMCSFPFVKNGHSESSGLIHLEGDTVQIICNTGYSLQNNEKNISCVERGWSTPPICSFTKGECHVPILEANVDAQPKKESYKVGDVLKFSCRKNLIRVGSDSVQCYQFGWSPNFPTCKGQVRSCGPPPQLSNGEVKEIRKEEYGHNEVVEYDCNPNFIINGPKKIQCVDGEWTTLPTCVEQVKTCGYIPELEYGYVQPSVPPYQHGVSVEVNCRNEYAMIGNNMITCINGIWTELPMCVATHQLKRCKIAGVNIKTLLKLSGKEFNHNSRIRYRCSDIFRYRHSVCINGKWNPEVDCTEKREQFCPPPPQIPNAQNMTTTVNYQDGEKVAVLCKENYLLPEAKEIVCKDGRWQSLPRCVESTAYCGPPPSINNGDTTSFPLSVYPPGSTVTYRCQSFYKLQGSVTVTCRNKQWSEPPRCLDPCVVSEENMNKNNIQLKWRNDGKLYAKTGDAVEFQCKFPHKAMISSPPFRAICQEGKFEYPICE", "notes": "also called monomeric CFHR5"}}, "molecular_target": "the molecule itself", "assay": "MALS / size exclusion chromatography", "text": "FIG. 3(a) Generation of a CFHR5 protein lacking critical amino acids within the dimerisation motif. Monomeric CFHR5 (CFHR5^{dimer mutant}) was generated by mutating the three stabilizing amino acids (Tyr34Ser, Ser36 Tyr, Tyr39Glu) within the dimerisation motif to the corresponding amino acids within CFH. FIG. 3(b) Analysis of recombinant CFHR5 and CFHR5^{dimer mutant} using SDS PAGE gel electrophoresis. Both the wild type and dimer mutants were purified to single homogenous species as visualized by denaturing electrophoresis. FIG. 3(c) Analysis of recombinant CFHR5 and CFHR5^{dimer mutant} using size exclusion chromatography. Size exclusion chromatography was performed on a Superdex200 10/30 column (GE Healthcare) equilibrated in 50 mM Tris.HCl, pH 7.5, 150 mM NaCl at 0.4 ml/min. The column was followed in-line by an Optilab-Rex refractive index monitor (Wyatt Technologies). The CFHR5 dimer elutes early from the column (blue trace) whilst the monomeric CFHR5^{dimer mutant} protein elutes at a larger column volume (red trace). FIG. 3(d) Interaction of CFHR5 and CFHR5^{dimer mutant} with renal-bound mouse C3 in vivo.\nThe inventors next explored the functional consequences of dimerisation. They predicted that dimerisation would enhance ligand interaction through avidity. To test this they generated monomeric and dimeric CFHR5 proteins. […]", "data": [{"protein": "B1", "values": [{"measurement": "binding result", "value": "no binding"}]}]}
